Data from the supplement of paper PMC10567573.

B1: BTBD10 (parent)
chain: FVYENAKEGARNIRTSERVTLIVD
B2: ELF3 (parent)
chain: LSKEYWDCLEGKKSKHAPRGTHLW

Variants of: B1
Assay: protein stability index of a GFP-peptide fusion (GPS, HEK-293T) (PSI 1-6); higher = more stable
Settings: c terminus: a fixed tail appended
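Note: lentivirally expressed fusions sorted by FACS into six bins by GFP to DsRed ratio, PSI derived from sequencing read proportions per bin multiplied by bin number.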

| Variant | protein stability index |
| --- | --- |
| T20S | 2.27 |
| T20V | 1.38 |
| T20W | 3.5 |
| T20Y | 1.81 |
| L21A | 2.34 |
| L21C | 2.32 |
| L21D | 3.07 |
| L21E | 2.79 |
| L21F | 1.88 |
| L21G | 2.56 |
| L21H | 2.11 |
| L21I | 1.57 |
| L21K | 2.6 |
| L21M | 1.99 |
| L21N | 2.63 |
| L21P | 2.03 |
| L21Q | 2.83 |
| L21R | 2.14 |
| L21S | 2.32 |
| L21T | 2.07 |
| L21V | 1.64 |
| L21W | 2.56 |
| L21Y | 1.89 |
| I22A | 1.76 |
| I22C | 2.33 |
| I22D | 2.96 |
| I22E | 3 |

| Variant | protein stability index |
| --- | --- |
| I22F | 2.06 |
| I22G | 1.72 |
| I22H | 2.2 |
| I22K | 2.34 |
| I22L | 1.72 |
| I22M | 2.77 |
| I22N | 2.72 |
| I22P | 2.89 |
| I22Q | 2.31 |
| I22R | 2.24 |
| I22S | 2.67 |
| I22T | 2.41 |
| I22V | 2.92 |
| I22W | 3.09 |
| I22Y | 1.81 |
| V23A | 2.26 |
| V23C | 2.15 |
| V23D | 2.39 |
| V23E | 2.89 |
| V23F | 1.99 |
| V23G | 2.11 |
| V23H | 2.26 |
| V23I | 1.82 |
| V23K | 2.06 |
| V23L | 2.07 |
| V23M | 2.04 |
| V23N | 2.92 |

| Variant | protein stability index |
| --- | --- |
| V23P | 3.05 |
| V23Q | 2.47 |
| V23R | 2.68 |
| V23S | 2.25 |
| V23T | 2.16 |
| V23W | 1.4 |
| V23Y | 1.7 |
| D24A | 1.49 |
| D24C | 1.91 |
| D24E | 1.65 |
| D24F | 2.88 |
| D24G | 1.82 |
| D24H | 1.66 |
| D24I | 2.95 |
| D24K | 1.72 |
| D24L | 2.03 |
| D24M | 1.95 |
| D24N | 1.95 |
| D24P | 2.06 |
| D24Q | 2.03 |
| D24R | 1.93 |
| D24S | 1.18 |
| D24T | 2.5 |
| D24V | 2.35 |
| D24W | 3.12 |
| D24Y | 2.01 |

Variants of: B2
Assay: as above
Settings: c terminus: a fixed tail appended

| Variant | protein stability index |
| --- | --- |
| L1A | 2.79 |
| L1C | 2.42 |
| L1D | 3.2 |
| L1E | 3.35 |
| L1G | 3.33 |
| L1H | 2.16 |
| L1I | 2.37 |
| L1K | 3.02 |
| L1M | 2.06 |
| L1N | 2.63 |
| L1P | 1.86 |
| L1Q | 2.71 |
| L1R | 2.96 |
| L1S | 2.67 |
| L1T | 2.53 |
| L1V | 2.77 |
| L1W | 1.97 |
| L1Y | 2 |
| S2A | 2.59 |
| S2C | 2.29 |
| S2D | 3.11 |
| S2E | 3.59 |

| Variant | protein stability index |
| --- | --- |
| S2F | 2.26 |
| S2G | 3.12 |
| S2H | 3.04 |
| S2I | 2.26 |
| S2K | 2.28 |
| S2L | 1.91 |
| S2M | 2.48 |
| S2N | 3.13 |
| S2P | 2.99 |
| S2Q | 2.78 |
| S2R | 2.48 |
| S2T | 2.98 |
| S2V | 2.36 |
| S2Y | 1.91 |
| K3A | 2.7 |
| K3C | 2.55 |
| K3D | 2.69 |
| K3E | 2.97 |
| K3F | 2.1 |
| K3G | 2.02 |
| K3H | 2.78 |
| K3I | 2.29 |

| Variant | protein stability index |
| --- | --- |
| K3L | 2.57 |
| K3M | 2.33 |
| K3N | 2.97 |
| K3P | 2.56 |
| K3Q | 2.13 |
| K3R | 2.93 |
| K3S | 2.61 |
| K3T | 2.83 |
| K3V | 2.1 |
| K3W | 2.35 |
| K3Y | 2.6 |
| E4A | 2.23 |
| E4C | 4.2 |
| E4D | 2.8 |
| E4F | 2.13 |
| E4G | 1.99 |
| E4H | 1.89 |
| E4I | 2.65 |
| E4K | 2.11 |
| E4L | 2.06 |
| E4M | 2.56 |
| E4N | 2.84 |

| Variant | protein stability index |
| --- | --- |
| E4P | 2.35 |
| E4Q | 1.74 |
| E4R | 1.86 |
| E4S | 2.38 |
| E4T | 2.87 |
| E4V | 2.53 |
| E4W | 1.58 |
| E4Y | 2.16 |
| Y5A | 3.23 |
| Y5C | 2.91 |
| Y5D | 3.41 |
| Y5E | 3.62 |
| Y5F | 3.23 |
| Y5G | 2.92 |
| Y5H | 3.85 |
| Y5I | 2.65 |
| Y5K | 3.19 |
| Y5L | 2.19 |
| Y5M | 3.38 |
| Y5N | 3.45 |
| Y5P | 3.37 |
